From US20030082146A1

Key:
[1] = biological target: anti-His single-chain antibody (scFv) artificial receptor displayed on 293.HissFv.rec cells; assay: cell-based or functional assay
[2] = biological target: wild-type Ad5 fiber (adenovirus serotype 5 (Ad5)) (UniProt P11818); assay: antibody-mediated virus capture on 9E10-coated plates, read out by GFP expression in 293.HissFv.rec cells (FACS)
[3] = biological target: TSFLCmychis knobless fiber protein (adenovirus serotype 5 (Ad5); Moloney Murine Leukemia Virus) (UniProt P11818); assay: as above

Row | Substance | gene transfer (EGFP expression) by AdGFP-TSFLCmychis into 293.HissFv.rec cells in the presence of the anti-fiber knob antibody [1] [%] | percent functional virus bound (relative to binding to 1D6.14) [2] [%] | percent functional virus bound (relative to binding to 1D6.14) [3] [%]
1 | TSFLCmychis knobless fiber protein (from UniProt P11818 1-403; P03385 514-553) | > 10 |  | 
2 | anti-Myc MoAb 9E10 (antibody) |  | 0.2 | 2.3
